Test [1] deals with G115 (Vγ9Vδ2) γδ TCR/CD3 complex, full length (human) (UniProt A0JD36). Briefly: cryo-EM structure.
In test [2] the target is 9C2 (Vγ5Vδ1) γδ TCR/CD3 complex, full length (human) (UniProt B7Z8K6). Briefly: cryo-EM structure.

Chain of UniProt A0JD36 (A0JD36 whole entry, looked up, stated change not applied, one chain of several): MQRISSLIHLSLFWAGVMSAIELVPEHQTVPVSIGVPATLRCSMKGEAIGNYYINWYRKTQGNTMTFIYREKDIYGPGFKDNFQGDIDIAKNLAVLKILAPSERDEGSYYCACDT

In test [1], OKT3 Fab returned a stoichiometry N of 2.

Take “9C2 (Vγ5Vδ1) γδ TCR/CD3 complex, full length (from UniProt B7Z8K6;P0CF51;P07766;P09693;P04234;P20963)”: the stoichiometry N in test [2] is 2.

The values above are taken from doi:10.1101/2024.07.19.604350.
